pKd: −log10 of the molar value.
Columns and labels:
[1] = target: LDgp5 (LoopDel);thioredoxin (trx) D5A;E7A;beta-hairpin;loop;replaced;by;SGSG (bacteriophage T7;Escherichia coli?) (UniProt P00581+P0AA25); assay: EMSA; conditions: 20 mM Hepes pH 7.5, 1 mM EDTA, 100 mM KCl, 0.1 mM bME, 5% glycerol, 0.10 mg/mL BSA, 10 nM DNA, 25 C (30 min; 15 min + 15 min for supershift)
[2] = target: WTgp5-trx complex (T7 gp5 DNA polymerase D5A, E7A with thioredoxin) (bacteriophage T7 | not stated) (UniProt P00581)

| Substance | pKd [1] | other results |
| --- | --- | --- |
| GGATTATTTACATTGGCAGATTCACC / TTATTAGTTATGATATTCATGTATAGTTATATGGTGAATCTGCCAATGTAAATAATCC / TATTCATGTATAGTTATGTAGAGACCGAGATCCGCGCTGCCAGTCGGCAGAGCC [Fork template 0gap] | 6.89 | – |
| GGATTATTTACATTGGCAGATTCACC / TTATTAGTTATGATATTCATGTATAGTTATATGGTGAATCTGCCAATGTAAATAATCC / TATTCATGTATAGTTATGTAGAGTCCGAGATCCGCGCTGCCAGTCGGCAGAGCC [Fork template 1gap] | 6.89 | – |
| GGATTATTTACATTGGCAGATTCACC / TTATTAGTTATGATATTCATGTATAGTTATATGGTGAATCTGCCAATGTAAATAATCC / TATTCATGTATAGTTATGTAGAGTTCCGAGATCCGCGCTGCCAGTCGGCAGAGCC [Fork template 2gap] | 6.89 | – |
| GGATTATTTACATTGGCAGATTCACC / TTATTAGTTATGATATTCATGTATAGTTATATGGTGAATCTGCCAATGTAAATAATCC [Linear template-58nt] | – | binding signal (fold lower affinity than WTgp5) [1]: 2 |
| T7 gp4 E343Q with truncated C-terminal tails (from UniProt P03692 1-566) (enzyme) | – | fold decrease in 2-aminopurine fluorescence of fork DNA (local base-pair unwinding), 2-AP at N+3, against the EQgp4-WTgp5 complex [2]: 2 fold |

From article PMC8835902
